The values that follow come from patent US20200071424A1.

The target in assay [1] is human-mouse chimeric EL (construct not specified). The assay is described as follows: cell-based or functional assay.
For assay [2] the target is unchanged. As to the kind of experiment: Biacore; EL captured by anti-C2-tag Ab; bivalent fit. On the technique in general: In SPR one partner is held on a chip, and binding of the other changes the refractive index at the surface.
The target of assay [3] is cynomolgus monkey EL (cynomolgus monkey). The assay is described as follows: cell-based or functional assay.
For assay [4] the target is unchanged. As to the kind of experiment: Biacore; EL captured by anti-C2-tag Ab; bivalent fit.

B1: h12B10-S1 (antibody, V domains shown)
VH: EVQLVESGGGLVKPGGSLRLSCAASGFSLSTSGMGVGWVRQAPGKGLEWLAHIWWNDEKYYNPSLKSRFTISRDDSKNTLYLQMNSLKTEDTAVYYCARDHLAYYFDVWGQGTLVTVSS
VL: DIQMTQSPSSLSASVGDRVTITCKASQDINKYIAWYQQKPGKAPKLLMAYPFTLQPGVPSRFSGSGSGTDFTLTISSLQPEDFATYYCLQYDNLLWTFGQGTKVEIK
For orientation: koff means the first-order rate constant of dissociation. As usually defined, the kon is the second-order rate constant of association. B1 returned a Neutralizing activity IC50 in assay [1] of 6 nM. In assay [2], this molecule displayed a Kd of 1.9 nM, a koff of 0.00035 s⁻¹ and a kon of 190000 M⁻¹ s⁻¹.

B2: h12B10-S4 (antibody, V domains shown)
VH: EVQLVESGGGLVKPGGSLRLSCAASGFSLSSSGMGVGWVRQAPGKGLEWLAHIWWNDEKYYNPSLKSRFTISRDDSKNTLYLQMNSLKTEDTAVYYCARDHLVFFFDLWGQGTLVTVSS
VL: DIQMTQSPSSLSASVGDRVTITCKASQDINKYIAWYQQKPGKAPKLLMAYPFTLQPGVPSRFSGSGSGTDFTLTISSLQPEDFATYYCLQYDNLLWTFGQGTKVEIK
Regarding B2, in assay [1], the Neutralizing activity IC50 was 6.2 nM.

B3: h12B10-S3 (antibody, V domains shown)
VH: EVQLVESGGGLVKPGGSLRLSCAASGFSLSTSGMGVGWVRQAPGKGLEWLAHIWWNDEKYYNPSLKSRFTISRDDSKNTLYLQMNSLKTEDTAVYYCARDHLAFFFDLWGQGTLVTVSS
VL: DIQMTQSPSSLSASVGDRVTITCKASQDINKYIAWYQQKPGKAPKLLMAYPFTLQPGVPSRFSGSGSGTDFTLTISSLQPEDFATYYCLQYDNLLWTFGQGTKVEIK
In assay [1], B3 returned a Neutralizing activity IC50 of 4.9 nM. In assay [2], the Kd worked out at 0.11 nM, the koff stood at 1.7e-05 s⁻¹ and the kon was found to be 150000 M⁻¹ s⁻¹.

B4: h12B10-S2 (antibody, V domains shown)
VH: EVQLVESGGGLVKPGGSLRLSCAASGFSLSTSGMGVGWVRQAPGKGLEWLAHIWWNDEKYYNPSLKSRFTISRDDSKNTLYLQMNSLKTEDTAVYYCARDHLAFYFDLWGQGTLVTVSS
VL: DIQMTQSPSSLSASVGDRVTITCKASQDINKYIAWYQQKPGKAPKLLMAYPFTLQPGVPSRFSGSGSGTDFTLTISSLQPEDFATYYCLQYDNLLWTFGQGTKVEIK
As to B4, the Neutralizing activity IC50 in assay [1] stood at 5.4 nM. Besides, in assay [2], the Kd was 0.14 nM, the koff was 3.3e-05 s⁻¹ and the kon was determined as 240000 M⁻¹ s⁻¹.

B5: h53A11-S1 (antibody, V domains shown)
VH: QVQLVQSGAEVKKPGASVKVSCKASGYTFTDYTMHWVRQAPGQRLEWMGGINPYYGGTTYNEKFKDRVTITRDTSASTAYMELSSLRSEDTAVYYCAKGDYYGGSYNYWGQGTTVTVSS
VL: EIVMTQSLATLSVSPGERATLSCRASQDISNSLHWYQQKPGQAPRLLIKYASQSISGIPARFSGSGSGTEFTLTISSLQSEDFAVYYCQQSNSWPYTFGQGTKLEIK
Molecule B5 had a Neutralizing activity IC50 in assay [3] of 1.7 nM. In assay [4], this molecule came in with a Kd of 2.3 nM, a koff of 0.0003 s⁻¹ and a kon of 130000 M⁻¹ s⁻¹.

B6: h53A11-S2 (antibody, V domains shown)
VH: QVQLVQSGAEVKKPGASVKVSCKASGYTFTDYTMHWVRQAPGQRLEWMGGINPYYGGTTYNEKFKDRVTITRDTSASTAYMELSSLRSEDTAVYYCAKGDYYGGSYNYWGQGTTVTVSS
VL: EIVMTQSLATLSVSPGERATLSCRASQDISNSLHWYQQKPGQAPRLLIYYASQSISGIPARFSGSGSGTEFTLTISSLQSEDFAVYYCQQSNSWPYTFGQGTKLEIK
Consider B6, for which the Neutralizing activity IC50 in assay [3] came to 1.8 nM. In assay [4], the Kd came out at 4.3 nM, the koff was found to be 0.00065 s⁻¹ and the kon is 150000 M⁻¹ s⁻¹.

B7: h53A11-S3 (antibody, V domains shown)
VH: QVQLVQSGAEVKKPGASVKVSCKASGYTFTDYTMHWVRQAPGQRLEWMGGINPYYGGTTYNEKFKDRVTITRDTSASTAYMELSSLRSEDTAVYYCAKGDYYGGSYNYWGQGTTVTVSS
VL: EIVMTQSPATLSVSPGERATLSCRASQDISNSLHWYQQKPGQAPRLLIKYASQSISGIPARFSGSGSGTEFTLTISSLQSEDFAVYYCQQSNSWPYTFGQGTKLEIK
The molecule B7 yielded a Neutralizing activity IC50 in assay [3] of 1.2 nM. In assay [4], the Kd worked out at 5.8 nM, the koff stood at 0.0007 s⁻¹ and the kon was determined as 120000 M⁻¹ s⁻¹.

B8: h13B3-S1 (antibody, V domains shown)
VH: QVQLVQSGAEVKKPGASVKVSCKASGYTFTEYTMHWVRQAPGQGLEWMGSINPYYGGTSYNEKFKDRVTMTRDTSTSTVYMELSSLRSEDTAVYYCARYGNYVGYFDYWGQGTTVTVSS
VL: EIVLTQSPGTLSLSPGERATLSCRASSSVHYMYWYQQKPGQAPRLLIYYTSNLAPGIPDRFSGSGSGTDFTLTISRLEPEDFAVYYCQQFTSSPYTFGGGTKVEIK
On to B8, for which the Neutralizing activity IC50 in assay [3] stood at 2.4 nM. For the same molecule, in assay [4], the Kd was 5.7 nM, the koff was 0.00043 s⁻¹ and the kon is 76000 M⁻¹ s⁻¹.

B9: h13B3-S2 (antibody, V domains shown)
VH: QVQLVQSGAEVKKPGASVKVSCKASGYTFTEYTMHWVRQAPGQGLEWMGSINPYYGGTSYNEKFKDRVTSTRDTSISTAYMELSRLRSDDTVVYYCARYGNYVGYFDYWGQGTTVTVSS
VL: EIVLTQSPGTLSLSPGERATLSCRASSSVHYMYWYQQKPGQAPRLLIYYTSNLAPGIPDRFSGSGSGTDFTLTISRLEPEDFAVYYCQQFTSSPYTFGGGTKVEIK
For the molecule B9, the Neutralizing activity IC50 in assay [3] worked out at 3.6 nM. In assay [4], this molecule registered a Kd of 3.1 nM, a koff of 0.00014 s⁻¹ and a kon of 45000 M⁻¹ s⁻¹.

B10: h13B3-S4 (antibody, V domains shown)
VH: QVQLVQSGAEVKKPGASVKVSCKASGYTFTEYTMHWVRQAPGQGLEWMGSINPYYGGTSYNEKFKDRVTSTRDTSISTAYMELSRLRSDDTVVYYCARYGNYVGYFDYWGQGTTVTVSS
VL: EIVLTQSPATLSLSPGERATLSCRASSSVHYMYWYQQKPGQAPRLLIYYTSNLAPGIPARFSGSGSGTDFTLTISSLEPEDFAVYYCQQFTSSPYTFGGGTKVEIK
For the molecule B10, the Neutralizing activity IC50 in assay [3] was 2.9 nM. In assay [4], this molecule yielded a Kd of 3.5 nM, a koff of 0.00038 s⁻¹ and an on-rate (kon) of 110000 M⁻¹ s⁻¹.

B11: h13B3-S3 (antibody, V domains shown)
VH: QVQLVQSGAEVKKPGASVKVSCKASGYTFTEYTMHWVRQAPGQGLEWMGSINPYYGGTSYNEKFKDRVTMTRDTSTSTVYMELSSLRSEDTAVYYCARYGNYVGYFDYWGQGTTVTVSS
VL: EIVLTQSPATLSLSPGERATLSCRASSSVHYMYWYQQKPGQAPRLLIYYTSNLAPGIPARFSGSGSGTDFTLTISSLEPEDFAVYYCQQFTSSPYTFGGGTKVEIK
In the case of B11, in assay [3], the Neutralizing activity IC50 was found to be 4.1 nM. In assay [4], the Kd worked out at 13 nM, the koff turned out to be 0.00085 s⁻¹ and the kon came to 66000 M⁻¹ s⁻¹.

B12: h16B3-S1 (antibody, V domains shown)
VH: EVQLVESGGGLVQPGGSLRLSCAASGFTFSGYTMSWVRQAPGKGLEWVSEISFARDRAFYPDTVKGRFTISRDNSKNTLYLQMNSLRAEDTAVYYCAKLGGRNHDYWYFDVWGQGTTVTVSS
VL: DIVMTQSPDSLAVSLGERATINCRASESVEYYGTSLMQWYQQKPGQPPKLLIYAASNVESGVPDRFSGSGSGTDFTLTISSLQAEDVAVYYCQQSWKVPFTFGQGTKLEIK
For B12, in assay [3], the Neutralizing activity IC50 was found to be 3.6 nM. In assay [4], this molecule registered a Kd of 11 nM, a koff of 0.001 s⁻¹ and a kon of 94000 M⁻¹ s⁻¹.

B13: h23H8-S1 (antibody, V domains shown)
VH: QVQLVQSGAEVKKPGASVKVSCKASGYTFTDNTIHWVRQAPGQGLEWMGHINPYYGGTNNNEKFKDRVTMTRDTSISTAYMELSRLRSDDTAVYYCARKGIYYSSPFDYWGQGTTVTVSS
VL: DIQMTQSPSSLSASVGDRVTITCRASQDINNYLNWYQQKPGKAPKLLIYYTSKLHSGVPSRFSGSGSGTDFTLTISSLQPEDFATYYCQQGNTLPFTFGQGTKLEIK
For the molecule B13, the Neutralizing activity IC50 in assay [3] is 26 nM. In assay [4], this molecule returned a Kd of 36 nM, a koff of 0.0036 s⁻¹ and a kon of 100000 M⁻¹ s⁻¹.

B14: h23H8-S3 (antibody, V domains shown)
VH: QVQLVQSGAEVKKPGASVKVSCKASGYTFTDNTIHWVRQAPGQGLEWMGHINPYYGGTNNNEKFKDRVTMTRDTSISTAYMELSRLRSDDTAVYYCARKGIYYSSPFDYWGQGTTVTVSS
VL: DIQMTQSPSSLSASVGDRVTITCRASQDINNYLNWYQQKPGKAPKLLISYTSKLHSGVPSRFSGSGSGTDFTLTISSLQPEDFATYYCQQGNTLPFTFGQGTKLEIK
B14 gave a Neutralizing activity IC50 in assay [3] of 1.8 nM. In addition, in assay [4], the Kd came to 0.41 nM, the koff amounted to 0.00015 s⁻¹ and the kon was 370000 M⁻¹ s⁻¹.

B15: h23H8-S2 (antibody, V domains shown)
VH: QVQLVQSGAEVKKPGASVKVSCKASGYTFTDNTIHWVRQAPGQGLEWMGHINPYYGGTNNNEKFKDRVTMTRDTSISTAYMELSRLRSDDTAVYYCARKGIYYSSPFDYWGQGTTVTVSS
VL: DIQMTQSPSSLSASVGDRVTITCRASQDINNYLNWYQQKPGKAPKLLISYTSKLHSGVPSRFSGSGSGTDFTLTISSLQREDFATYYCQQGNTLPFTFGQGTKLEIK
In the case of B15, the Neutralizing activity IC50 in assay [3] stood at 1.7 nM. In assay [4], this molecule showed a Kd of 4.3 nM, a koff of 0.00099 s⁻¹ and a kon of 230000 M⁻¹ s⁻¹.
